For one assay, the target named is T1, SdpB(26-536) (Caulobacter crescentus NA1000, UniProt A0A0H3C791 26-536, biotinylated using NHS-PEG4-Biotin (for BLI)).
T1 chain: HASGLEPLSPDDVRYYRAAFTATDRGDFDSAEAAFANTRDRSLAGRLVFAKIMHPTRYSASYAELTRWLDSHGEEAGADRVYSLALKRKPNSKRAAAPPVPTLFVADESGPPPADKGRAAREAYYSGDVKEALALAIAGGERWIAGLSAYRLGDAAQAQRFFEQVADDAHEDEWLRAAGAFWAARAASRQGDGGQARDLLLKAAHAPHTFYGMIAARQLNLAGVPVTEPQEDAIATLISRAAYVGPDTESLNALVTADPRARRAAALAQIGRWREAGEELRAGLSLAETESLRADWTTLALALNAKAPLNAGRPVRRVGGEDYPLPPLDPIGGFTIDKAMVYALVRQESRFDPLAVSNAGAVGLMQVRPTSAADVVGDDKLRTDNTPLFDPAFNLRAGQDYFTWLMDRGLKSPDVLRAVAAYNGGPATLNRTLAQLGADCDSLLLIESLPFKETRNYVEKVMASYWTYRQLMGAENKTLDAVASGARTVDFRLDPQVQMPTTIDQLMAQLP
Nature of the assay: BLI.

The next assay concerns the target T2, CrbA(371-451) (Caulobacter crescentus NA1000, UniProt A0A0H3C8K5 371-451, biotinylated using NHS-PEG4-Biotin (for BLI)).
T2 chain: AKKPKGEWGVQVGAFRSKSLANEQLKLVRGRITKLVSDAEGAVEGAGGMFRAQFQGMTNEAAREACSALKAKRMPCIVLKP
Nature of the assay: BLI.

For the next assay, the target named is T3, His6-SdpA(21-699) (Caulobacter crescentus NA1000, UniProt A0A0H3C7P1 21-699, biotinylated using NHS-PEG4-Biotin (for BLI)).
T3 chain: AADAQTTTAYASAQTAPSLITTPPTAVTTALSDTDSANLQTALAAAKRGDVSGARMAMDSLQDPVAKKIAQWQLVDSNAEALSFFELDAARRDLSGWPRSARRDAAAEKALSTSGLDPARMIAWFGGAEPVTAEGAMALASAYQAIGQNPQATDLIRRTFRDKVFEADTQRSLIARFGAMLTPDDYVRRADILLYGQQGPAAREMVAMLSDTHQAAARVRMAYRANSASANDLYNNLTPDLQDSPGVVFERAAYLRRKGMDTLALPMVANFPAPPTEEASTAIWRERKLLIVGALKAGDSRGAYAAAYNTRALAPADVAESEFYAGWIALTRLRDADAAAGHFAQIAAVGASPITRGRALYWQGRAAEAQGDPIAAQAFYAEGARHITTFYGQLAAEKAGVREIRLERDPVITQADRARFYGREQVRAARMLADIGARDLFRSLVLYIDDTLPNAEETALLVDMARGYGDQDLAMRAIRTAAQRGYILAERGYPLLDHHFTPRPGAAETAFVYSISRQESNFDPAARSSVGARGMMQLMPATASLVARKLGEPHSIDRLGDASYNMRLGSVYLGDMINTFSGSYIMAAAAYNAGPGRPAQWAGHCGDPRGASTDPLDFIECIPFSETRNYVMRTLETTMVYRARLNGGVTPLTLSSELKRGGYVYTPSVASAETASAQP
As to the kind of experiment: BLI.

The next assay concerns the target T4, FtsN(51-266) (Caulobacter crescentus NA1000, UniProt B8GX61 51-266, biotinylated using NHS-PEG4-Biotin (for BLI)).
T4 chain: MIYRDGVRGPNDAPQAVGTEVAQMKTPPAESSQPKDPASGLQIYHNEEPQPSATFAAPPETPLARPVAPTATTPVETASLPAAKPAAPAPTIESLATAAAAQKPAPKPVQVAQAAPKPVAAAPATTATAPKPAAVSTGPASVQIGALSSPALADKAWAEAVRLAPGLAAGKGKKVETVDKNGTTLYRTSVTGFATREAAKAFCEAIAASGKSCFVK
As to the kind of experiment: BLI.

In a further assay the target is T5, AmiC(35-395) (Caulobacter crescentus NA1000, UniProt A0A0H3C9I3 35-395, biotinylated using NHS-PEG4-Biotin (for BLI)).
T5 chain: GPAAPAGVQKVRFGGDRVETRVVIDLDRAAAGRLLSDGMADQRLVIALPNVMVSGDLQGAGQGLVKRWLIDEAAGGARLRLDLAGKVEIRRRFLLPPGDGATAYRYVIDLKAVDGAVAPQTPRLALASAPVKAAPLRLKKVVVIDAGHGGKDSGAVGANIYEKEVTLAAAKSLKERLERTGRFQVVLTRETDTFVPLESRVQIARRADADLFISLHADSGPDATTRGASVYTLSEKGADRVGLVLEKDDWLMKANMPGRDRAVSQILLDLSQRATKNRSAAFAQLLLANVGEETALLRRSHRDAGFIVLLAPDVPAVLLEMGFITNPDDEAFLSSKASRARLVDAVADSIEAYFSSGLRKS
Nature of the assay: BLI.

Assay [1] has as its target SdpA, SdpB, AmiC, the SPOR domain of CrbA and the periplasmic region of FtsN. Nature of the assay: BLI; biotinylated target immobilised on streptavidin (SAX) sensors, DipM as analyte at several concentrations; equilibrium shifts fitted to a one-site model; 50 mM HEPES/NaOH pH 7.2, 50 mM NaCl, 5 mM MgCl2, 0.1 mM EDTA, 10% glycerol, 10 µM BSA, 0.01% Triton X-100.

B1: MAS-DipM(26-609)-His6 (natural protein)
chain: MASGQSGQRFTPNFPITQPAAPPPGETIQAQPGEAESLPRPTPIPVQSAPPIAQAELPPPAPVSTPAPAPQPVLRATPPRTVVTTTVTGPVVEVAGKPQVRVVESGDALDAIARGMGSTRAELVKLNDLEPPYRLKLGQKIKGPATTAKAYVVQTGDTMFAIAKRFNVTAAALAEENDLKSGAAIKKGQKLLLPDGYKDKGPIKTTQVIPGTPATMVAEAEPAPATTRPATPAATPSRPVRQPVSEETSEPATTSTTTLSVTGSVVTVAGPRQVHTVKSGDTLTAIARKFDMSVSELAEANKLDTEKPLKLGAKIKGPATTQKAYSVQTGDTLGEIAKRFNVSVKALAAENNLRATASLKKGQKIALPDGFRDKGPIRTTTTTRPATPPANTYARVDSSAAAASTPSSPVPYTPSGAAPRPSAPVAAQPITPPPSSGRTIIETAAAPTEAEIIASGKGKFAWPLRGDIISSFGVKGTGQRNDGLNIRAPQGTPVLSSADGEIAYAGNQVPTFGNLVLVKHADGWVTAYAHLSSTNVKMRQQVKQGEQLGTVGATGGVNEPQLHFEMRYAPTVKDKAKPVDPALVLPR
As to B1, the Kd in the assay with SdpB(26-536) was 3.5 µM; with CrbA(371-451) it was 46.3 µM; in the assay with His6-SdpA(21-699), 12.1 µM; with FtsN(51-266), 20 µM; in the assay with AmiC(35-395) it was 18.3 µM; in assay [1], 3 to 46 µM.

The values are drawn from PMC10336132 (2023).
